# Substitutions are numbered along the chain they refer to. Numbers in names are those of the source.
# B1: NSa1(+10)-A13BocK: non-crosslinked +10 charged monobody NSa1 encoding BocK at position 13; SEQ ID NO: 50 (protein)
# chain: MGSSHHHHHHSSGTENLYFQGVSSKPTKLRVVRXTPTSLKIKWDAPAKTVDYYVITYGETGRGGYAWQRFEVPGSKRTATIKGLKPGVDYTITVYAGYKGYPTYYSSPISINYRT
# modifications: BocK non-natural residue at position 13; VARIANT 34 X is 1/2-carboxy-4-aryltriazole lysine or Ne-(tert-butoxycarbonyl) lysine
# B2: NSa1(+10)-A13CATK-1: +10 charged monobody NSa1 encoding CATK-1 at Ala-13, crosslinked to Tyr-92; SEQ ID NO: 50 (protein)
# chain: B1 chain
# modifications: CATK-1 at Ala13 crosslinked to Tyr92; VARIANT 34 X is 1/2-carboxy-4-aryltriazole lysine or Ne-(tert-butoxycarbonyl) lysine
# B3: NSa1(+5)-A13BeLaK-Y92K-C1: supercharged NSa1 monobody encoding BeLaK; SEQ. ID. NO: 9 (protein)
# chain: MGSSHHHHHHSSGTENLYFQGCVSSKPTKLRVVRXTPTSLKISWDAPAVTVDYYVITYGEKGSGGYAWQEFEVPGSKRTATISGLKPGVDYTITVYAGYKGYPTYYSSPISINKRT
# modifications: BeLaK at position 13; N-terminal Cys; MOD_RES 35 X is N6-(2-Oxoazetidine-1-carbonyl)-L-lysine
# notes: supercharged NSa1 monobody encoding BeLaK; ID; NO: 9
# B4: NSa1(+7)-A13BeLaK-Y92K-C1: supercharged NSa1 monobody encoding BeLaK; SEQ. ID. NO: 12 (protein)
# chain: B3 chain with S43K, S63R
# modifications: BeLaK at position 13; N-terminal Cys; MOD_RES 35 X is N6-(2-Oxoazetidine-1-carbonyl)-L-lysine
# notes: supercharged NSa1 monobody encoding BeLaK; ID; NO: 12
# B5: NSa1(+10)-A13BeLaK-Y92K-C1: supercharged NSa1 monobody encoding BeLaK; SEQ. ID. NO: 16 (protein)
# chain: B3 chain with S43K, V49K, K61T, S63R, E70R, S83K
# modifications: BeLaK at position 13; N-terminal Cys; MOD_RES 35 X is N6-(2-Oxoazetidine-1-carbonyl)-L-lysine
# notes: supercharged NSa1 monobody encoding BeLaK; ID; NO: 16
# B6: NSa1(+17)-A13BeLaK-Y92K-C1: supercharged NSa1 monobody encoding BeLaK; SEQ. ID. NO: 20 (protein)
# chain: B3 chain with S24K, D45K, A48K, V49K, E60K, K61T, E70R, E72R, T81K, S83K
# modifications: BeLaK at position 13; N-terminal Cys; MOD_RES 35 X is N6-(2-Oxoazetidine-1-carbonyl)-L-lysine
# notes: supercharged NSa1 monobody encoding BeLaK; ID; NO: 20
# B7: 12VC1(+8)-A13BeLaK-Y92K: monobody 12VC1(+8) encoding BeLaK; SEQ. ID. NO: 2 (protein)
# chain: MGSSHHHHHHSSGTENLYFQGVSSVPTKLKVVAXTPTSLLISWDAPAVTVFFYVITYGETGHGVGAFKAFKVPGSKSTATISGLKPGVDYTITVYARGYSKKGPYKPSPISINKRT
# modifications: BeLaK non-natural residue at position 13; VARIANT 34 X is Ne-(tert-butoxycarbonyl) lysine or N6-(2-Oxoazetidine-1-carbonyl)-L-lysine
# notes: monobody 12VC1(+8) encoding BeLaK; ID; NO: 2
# B8: 12VC1(+10)-A13BeLaK-Y92K: monobody 12VC1(+10) encoding BeLaK; SEQ. ID. NO: 3 (protein)
# chain: B7 chain with S24K, K30E, S42K, F51K, T60K, K68Q, S77R, S82K, K102Q
# modifications: BeLaK non-natural residue at position 13; VARIANT 34 X is Ne-(tert-butoxycarbonyl) lysine or N6-(2-Oxoazetidine-1-carbonyl)-L-lysine
# notes: monobody 12VC1(+10) encoding BeLaK; ID; NO: 3
# B9: NSa1(+5)-A13BeLaK: supercharged NSa1 monobody encoding BeLaK; SEQ. ID. NO: 6 (protein)
# chain: B1 chain with K42S, K48V, T60K, R62S, R69E, K82S
# modifications: BeLaK non-natural residue at position 13; MOD_RES 34 X is N6-(2-Oxoazetidine-1-carbonyl)-L-lysine
# notes: supercharged NSa1 monobody encoding BeLaK; ID; NO: 6
# Key:
# HeLa cells = assay: Flow cytometry uptake of AF488-labeled NSa1(+10) proteins in HeLa cells; format: cell-based; conditions: for percentage of fluorescent cells / MFI(R-1) Trial 1 / MFI(R-1) Trial 2 / MFI(R-1) Trial 3: 4 hours; for MFI(R-1) Trial 1 / MFI(R-1) Trial 2 / MFI(R-1) Trial 3: Protein 500 nM, 37°C
# Description: (§1) To assess cellular uptake of the supercharged NSa1 proteins, we first removed the N-terminal His-tag after TEV cleavage to obtain two intact NSa1(+10) mutants encoding either BocK or CATK-1. We then reacted the mutants with Alexa Fluor 488-NHS modest labeling yield of 20-23% (FIG. 22). We then carried out a flow cytometry assay to quantify the uptake efficiency of the NSa1(+10) mutants. In brief, HeLa cells were treated with 100 or 500 nM of NSa1(+10) proteins at 37° C. for 4 hours. After washing cells three times with PBS containing 20 U/mL heparin to remove the surface-bound proteins, cells were collected and analyzed by flow cytometry. We observed significant monobody uptake when protein concentrations reached 500 nM. […] Since the kinetically stable protein folds show enhanced proteolytic resistance due to their rigid conformations with limited local openings, we assessed the effect of orthogonal crosslinking on proteolytic stability of the monobody. Thus, we incubated the CATK-1-crosslinked NSa1(+10) with cathepsin B ¾ an enzyme responsible for the degradation of protein cargoes in the endosomes ¾ and monitored monobody stability by mass spectrometry.
# Fluorescent labeling of NSa1 and flow cytometry. After TEV-cleavage and further cation exchange chromatography, the purified NSa1 proteins were buffer exchanged into the basic buffer (100 mM Pi, 450 mM NaCl, pH 8.3), and then incubated with AF488-NHS (Lumiprobe) (2-fold molar, optimized to afford non-labeled and mono-labeled protein as major species) at 4° C. with gentle shaking in darkness overnight. Then, thorough dialysis was employed to remove excess dye and protein concentrations were determined by Nanodrop (eNSa1=28880 M^−1 cm^−1, eNSa1-plus10=27390 M^−1 cm^−1; CF280=0.11; Aprotein=A280−A493*CF280).
# HeLa cells were seeded in a 48-well plate and grown in DMEM supplemented with 10% FBS and 10 μg/mL Gentamycin (Gibco) and 2 μg/mL Plasmocin at 37° C., 5% CO2 until ˜80% confluency. Cells were washed twice with pre-warmed PBS before switching to serum-free DMEM with Alexa-488 labeled protein. Cells were incubated at 37° C. for 4 hours. The cells were washed three times with PBS (including 20 U/mL heparin), trypsinized, and collected with 1.5 mL tubes. After brief centrifugation (400 g, 5 min) at room temperature, cells were collected and resuspended in PBS for flow cytometry analysis.
# Cathepsin B = biological target: T1, Cathepsin B (Homo sapiens, UniProt P07858); assay: NSa1 proteolytical stability assay (QTOF-LC/MS); format: in vitro ADME
# T1 construct: purchased Novus Biologicals
# Description: as §1
# NSa1 proteolytical stability assay. In a 1.5-mL microcentrifuge tube, TEV-cleaved, purified NSa1 (1.5 μM in 50 mM phosphate, 500 mM NaCl, pH 7.0) was incubated with Cathepsin B (Novus Biologicals; 0.065 μM) at 37° C. […]
# [1] = Intramolecular (inter-strand) crosslinking yield of nanobody/monobodies by mass spectrometry; conditions: UAA-encoded monobodies, MS characterization (Table 5)
# Description: To probe whether CATK-1 is suitable for inter-strand cross-linking in proteins containing the disulfide bond, we selected a small protein called nanobody NB1, a prototypical single-chain VHH antibody that binds specifically to GFP protein. Based on NB1 structure, there is one disulfide bond formed between Cys-24 and Cys-98, close to a proposed orthogonal crosslinking site at Val-4 and Tyr-106 (FIG. 5a, left). To test orthogonal crosslinking, we placed CATK-1 at Val-4 position to target Tyr-106 located 5.6 Å away on the opposing strand. The BocK- and CATK-1-encoded NB1 were successfully expressed at yields of 14.3 mg L^−1 and 3.5 mg L^−1, respectively (FIG. 5b, left). […] Separately, we also examined the utility of CATK-1 in effecting intramolecular crosslinking in an antibody mimic called monobody. Due to their lack of cysteine residues, small size (˜10 kDa), and evolvable binding affinity and specificity, monobodies represent an ideal protein scaffold for targeting protein-protein interactions in the cytosols of mammalian cells. However, monobodies are cell impermeable, severely limiting their potential. One strategy to potentially overcome this limitation is to combine protein surface supercharging with orthogonal crosslinking to increase stability in the endosomes and thus improve cytosolic delivery. To this end, we designed an overall +10 charged monobody NSa1, termed NSa1(+10), using the Supercharge protocol on ROSIE Rosetta Online Server and added an amber codon at Ala-13 position. Based on the NSa1 structure, A13CATK-1 is well-positioned to react with the proximal Tyr-92 on the opposing strand at C-terminus (FIG. 5a, right). Accordingly, the wild-type and NSa1(+10) mutant proteins encoding CATK-1 or BocK were expressed and purified in good yields (4.1-6.9 mg L^1; FIG. 5b, right). […] The crosslink-containing fragment was identified by LC/MS after trypsin digestion (FIG. 21).
# To assess if BeLaK is suitable for orthogonal crosslinking of domain antibodies, we selected NSa1, a monobody-based SHP2 inhibitor, and placed BeLaK at position-13 of the N-terminal β-strand. A panel of supercharged NSa1 mutants carrying overall charges of +6, +8, +11, and +18, respectively, were designed using Supercharge protocol on ROSIE Rosetta Online Server with native NSa1 (˜2 charge) as a template. […] Thus, the supercharged monobodies encoding either BeLaK or BocK were expressed in good yields (2.2˜7.2 mg L^−1; FIG. 42). […] Furthermore, as the positive charge increases, the mobility decreases, likely due to reduced overall negative charge after association with the SDS molecules. MS analysis further confirmed the identities of the supercharged NSa1 mutants (FIG. 34c). Since the unreacted BeLaK-encoded monobodies share the same mass as the crosslinked ones, we treated the purified monobodies with excess β-mercapto-ethanol for 7 days, which accelerates the hydrolysis of the unreacted β-lactam and in turn adds +18 Da to protein mass, and monitored the intact mass change. Using this method, we determined orthogonal crosslinking yields to range from 5% for native NSa1 to more than 50% for +8/+11/+18 mutants (FIG. 42). We attribute the higher yields to the increased conformational dynamics, which promotes proximity-driven crosslinking reactions. The crosslinking sites in +11 and +18 mutants were mapped to Lys-21 and Lys-19, respectively, residues on the nearby β-strand, based on the identified fragment masses after trypsin digestion (FIG. 34d, FIG. 50).
# Crosslinking yield determination of BeLaK-encoded NSa1 variants. To quantify the extent of crosslinking, β-mercaptoethanol (20 mM) was added at a final concentration of 2.58 mM (100 equiv, 3 μL) to a solution of purified NSa1 variants (25 μM, 30 μL) in elution buffer (50 mM Na2HPO4, pH=7.4, 300 mM NaCl, 250 mM imidazole). The mixture was incubated at 37° C. overnight. Afterwards, the mixture was removed from the incubator and allowed to incubate at 25° C. for 1 week.
molecule,measurement,setting,value
B1,percentage of fluorescent cells,HeLa cells; 500 nM,13.6%
same,MFI(R-1) Trial 1,HeLa cells,6726.24
same,MFI(R-1) Trial 2,HeLa cells,6507.23
same,MFI(R-1) Trial 3,HeLa cells,6855.84
B2,half-life relative to non-crosslinked NSa1(+10)-A13BocK,"Cathepsin B; Cathepsin B, 37°C",three times longer
same,half-life,Cathepsin B; NSa1 1.5 μM with Cathepsin B 0.065 μM at 37°C,2.1 h
same,higher mean fluorescence intensity than NSa1(+10)-A13BocK treated cells,HeLa cells; 500 nM,40%
same,percentage of fluorescent cells,HeLa cells; 500 nM,14.8%
same,MFI(R-1) Trial 1,HeLa cells,9561.61
same,MFI(R-1) Trial 2,HeLa cells,9020.17
same,MFI(R-1) Trial 3,HeLa cells,9337.41
B3,X-linking yield,[1],25%
B4,X-linking yield,[1],60%
B5,X-linking yield,[1],100%
B6,X-linking yield,[1],87%
B7,X-linking yield,[1],86%
B8,X-linking yield,[1],83%
B9,X-linking yield,[1],43%
